Source: article PMC5095173, “Disulfide-activated protein kinase G Iα regulates cardiac diastolic relaxation and fine-tunes the Frank–Starling response” (Nature Communications, 2016)
Where no end group is shown, it is not given here.

B1: N-terminally acetylated peptide of the N-terminal cytoplasmic domain of human phospholamban, PLN (amino acid 1-23) (peptide, UniProt P26678 1-23, looked up)
peptide: Ac-MEKVQYLTRSAIRRASTIEMPQQ
notes: cardiac phospholamban, human, residues 1-23 (N-terminal cytoplasmic domain); also called PLN_(1–23); PLN (1–23); source: synthetic peptide; bought: PeptideSynthetics (Peptide Protein Research Ltd, UK)
B2: oxidized (WT) protein kinase G Iα, Cys42 disulfide dimer (enzyme, human, UniProt Q13976 1-671, looked up)
chain: MSELEEDFAKILMLKEERIKELEKRLSEKEEEIQELKRKLHKCQSVLPVPSTHIGPRTTRAQGISAEPQTYRSFHDLRQAFRKFTKSERSKDLIKEAILDNDFMKNLELSQIQEIVDCMYPVEYGKDSCIIKEGDVGSLVYVMEDGKVEVTKEGVKLCTMGPGKVFGELAILYNCTRTATVKTLVNVKLWAIDRQCFQTIMMRTGLIKHTEYMEFLKSVPTFQSLPEEILSKLADVLEETHYENGEYIIRQGARGDTFFIISKGTVNVTREDSPSEDPVFLRTLGKGDWFGEKALQGEDVRTANVIAAEAVTCLVIDRDSFKHLIGGLDDVSNKAYEDAEAKAKYEAEAAFFANLKLSDFNIIDTLGVGGFGRVELVQLKSEESKTFAMKILKKRHIVDTRQQEHIRSEKQIMQGAHSDFIVRLYRTFKDSKYLYMLMEACLGGELWTILRDRGSFEDSTTRFYTACVVEAFAYLHSKGIIYRDLKPENLILDHRGYAKLVDFGFAKKIGFGKKTWTFCGTPEYVAPEIILNKGHDISADYWSLGILMYELLTGSPPFSGPDPMKTYNIILRGIDMIEFPKKIAKNAANLIKKLCRDNPSERLGNLKNGVKDIQKHKWFEGFNWEGLRKGTLTPPIIPSVASPTDTSNFDSFPEDNDEPPPDDNSGWDIDF
modifications: intermolecular disulfide bond at Cys42 between the two subunits
notes: protein kinase G Iα (cGMP-dependent protein kinase 1, alpha isoform), human, untagged WT construct; also called PKGIα; source: FreeStyle 293-F cells, transfected, purified (8-AEA-cAMP agarose, size exclusion chromatography); incubated with 10 mM lipoic acid to obtain the disulfide dimer

Legend:
[1] = target: B2; test: ITC; PLN (1–23) (700 μM) titrated into the cell containing WT disulfide PKGIα or the C42S mutant (70 μM); 25 °C; 50 mM sodium phosphate buffer pH 7.4, 100 mM NaCl; no cyclic nucleotide; details: both partners purified
[2] = target: the molecule itself; test: cross-linking; intermolecular Cys42 disulfide of purified recombinant PKGIα (lipoic acid or air oxidation) seen as dimer by SDS-PAGE

Binder | Kd [1] [µM] | stoichiometry N [1] | stoichiometry N [2]
B1 | ~7 | 1 PLN peptide per PKGIα disulfide dimer | –
B2 | – | – | 2
